Patent publication US10029000B2, “Uses of IL-12 in hematopoiesis” (University of Southern California, priority 2003, dated 2018)
“Also recorded” adds a separate entry of the source.

Tests used:
lethally irradiated mice = experiment: Radioprotection assay: survival of mice after total body lethal irradiation; type: in vivo, mice (C57BL/6J); conditions: for animals with long-term survival (more than one year): 100 ng/mouse (5 ug/Kg)
Experimental: Mice received recombinant murine IL-12 (100 ng/mouse (which is about 5 ug/kg on average), intravenous injection) before (24 hours) or after (1 hour) lethal dose radiation (1000 rad). Mice in control group received equal volume of PBS buffer. Survival rate were analyzed by Kaplan-Meier method and p value was calculated using Log Rank Test.
To determine the minimum effective radioprotective dose of IL-12, different dose of IL-112 were administered to lethally irradiated animals before (24 hours before) or post (within one hour) lethal dose ionizing radiation.
IL-12 was administrated to mice at different doses 24 hours before radiation to determine if there is a dose dependent relationship between the concentration of IL-12 administration and survival from lethal irradiation.
To further explore the relationship of IL-12 hematopoietic rescue effect as it may relate to the time of administration, IL-12 was administrated to lethally irradiated animals at different time before and after the radiation. The following time points were tested: −48, −36, −24, and −12 hours before radiation, or +1, +12, +24, and +36 hours post radiation.
A study was conducted to determine if the radioprotective effect of IL-12 administration is specific and INF- ? independent. […] Also, an assessment was made to determine if there was a synergistic effect between GM-CSF and IL-12.
Mice were provided with acid water for one week before the radioprotection assay. Cytokines, diluted in phosphate buffered saline (PBS), pH 7.4, were intravenously injected into mice before or after total body lethal irradiation (TBI) at the specified times. Control group mice were injected with PBS buffer. For TBI, mice were either exposed twice to ionizing irradiation ( ? -ray from Cesium 137) at 500 rad dose with a 3 hour interval, or one time at a dose of 1000 rad in a Gammacell 40 machine from Atomic Energy of Canada LTD (Kanafa, Ontario, Canada). The ? -ray exposure rate is 1 Gy/min. […] After irradiation, mice were given water containing antibiotics. For the survival curve, the Kaplan-Meier method was used. Each experiment was repeated three or more times.

[1] = test system: short-term hematopoietic stem cells (ST-HSCs); experiment: Colony forming units spleen day 12 assay (CFU-S12); type: in vivo, mice
Experimental: To determine the bone marrow cell subsets that are protected by IL-12 administration for the rescue phenomena, CFC and CFU-S12 assay were performed at different time post lethal dose radiation. Bone marrow cells were recovered from IL-12 treated or control animals immediately (day 0), or at day 7, 9, 10, 12, 14 and 21 post radiation for CFC and CFU-S12 assay. If progenitor cells are protected from IL-12 treatment (IL-12 was administered in this study at 24 hours before radiation), CFC and CFU-S12 colonies should be detected when cells were removed at day 0. However, bone marrow cells isolated at day 0, 7 post radiation give rise no CFC nor CFU-S12 colonies in both IL-12 treated and control animals. At day 10 post radiation, the bone marrow cells isolated from IL-12 treated mice start to give rise of CFU-S12 but no detectable CFC, which start to appear from IL-112 treated bone marrow isolated 12 days post radiation and fully recovered from bone marrow cells isolated 14 days post radiation, as shown in FIGS. 5A and 5B. […] The CFU-S12 colony forming cells and CFC cells at day 10 and day 14 post radiation may be derived from long-term repopulating stem cells rescued by IL-12 treatment. […]
For the CFU-spleen12 assay, 2×10^5 bone marrow cells as donors were transplanted into recipient mice which received lethal irradiation. […] Spleen colonies were counted.

[2] = test system: long-term repopulating HSC; experiment: Secondary bone marrow transplantation of IL-12 rescued marrow; type: in vivo, mice (Ly5.2 donor, Ly5.1 recipient); conditions: donor derived T/B and M/G cells detected
Description: FIG. 5D-F: Secondary bone marrow transplantation was employed to detect if IL-12 can protect long-term repopulating HSC. Six month after lethal dose radiation and IL-12 rescue, bone marrow cells from these mice (Ly 5.2) were isolated and transplanted to secondary lethally irradiated mice (Ly 5.1). Four months after transplantation, donor cells (Ly5.2) were examined in recipient's peripheral blood.
The following gives some further experimental details. Six months after the rescue from lethal dose radiation (IL-12 treated mice, C57BL/Ly5.2), whole bone marrow cells were isolated and 1×10^6 cells were transplanted to secondary lethally irradiated mice (C57BL/Ly5.1). 4 months after transplantation, blood cells were collected and stained with anti-Ly5.2 and anti-Mac-1/anti-Gr-lantibodies (5D), and anti-Ly5.2 and anti-CD3/anti-B220 antibodies (5E) and anti-Ly5.2 antibody (5F). […]
Ly5.2 strain mice rescued by IL-112 treatment before or after lethal irradiation were sacrificed after 6 months. […] 4 months after the transplantation, peripheral blood cells were analyzed for Ly5.2 cells (anti-Ly5.2 antibody conjugated with FITC) with T cell and B cell markers (anti-CD3 and anti-B220 antibody conjugated with PE) and with macrophage and granulocyte cell markers (anti-CD11b and anti-Gr1 antibody conjugated with PE) using FACS. […]

[3] = cytokine given 1 hour post lethal dose radiation

B1: IL-12: Recombinant murine interleukin 12, heterodimeric cytokine (p35+p40), purchased from R&D Systems or PeproTech (protein, UniProt P43431 23-215; P43432 23-335, looked up)
Interleukin-12 subunit alpha: RVIPVSGPARCLSQSRNLLKTTDDMVKTAREKLKHYSCTAEDIDHEDITRDQTSTLKTCLPLELHKNESCLATRETSSTTRGSCLPPQKTSLMMTLCLGSIYEDLKMYQTEFQAINAALQNHNHQQIILDKGMLVAIDELMQSLNHNGETLRQKPPVGEADPYRVKMKLCILLHAFSTRVVTINRVMGYLSSA
Interleukin-12 subunit beta: MWELEKDVYVVEVDWTPDAPGETVNLTCDTPEEDDITWTSDQRHGVIGSGKTLTITVKEFLDAGQYTCHKGGETLSHSHLLLHKKENGIWSTEILKNFKNKTFLKCEAPNYSGRFTCSWLVQRNMDLKFNIKSSSSSPDSRAVTCGMASLSAEKVTLDQRDYEKYSVSCQEDVTCPTAEETLPIELALEARQQNKYENYSTSFFIRDIIKPDPPKNLQMKPLKNSQVEVSWEYPDSWSTPHSYFSLKFFVRIQRKKEKMKETEEGCNQKGAFLVEKTSTEVQCKGGNVCVQAQDRYYNSSCSKWACVPCRVRS
Lethally irradiated mice; 24 hours before lethal radiation
  animals with long-term survival (more than one year): 95%
Lethally irradiated mice; post lethal radiation
  animals with long-term survival (more than one year): 75%
Lethally irradiated mice; 100 ng/mouse i.v., 24 hours before or 1 hour after 1000 rad, p<0.001
  survival difference versus control (Kaplan-Meier, Log Rank Test): statistically significant; also recorded: significant better survival
Lethally irradiated mice; IL-12 dose 5 ng/mouse, 24 hours before radiation, 5 mice
  Survives (30 days): 0
Lethally irradiated mice; IL-12 dose 5 ng/mouse, 24 hours before radiation, 30 days
  Survival rate (%): 0%
Lethally irradiated mice; IL-12 dose 10 ng/mouse, 24 hours before radiation, 5 mice
  Survives (30 days): 0
Lethally irradiated mice; IL-12 dose 10 ng/mouse, 24 hours before radiation, 30 days
  Survival rate (%): 0%
Lethally irradiated mice; IL-12 dose 25 ng/mouse, 24 hours before radiation, 5 mice
  Survives (30 days): 2
Lethally irradiated mice; IL-12 dose 25 ng/mouse, 24 hours before radiation, 30 days
  Survival rate (%): 40%
Lethally irradiated mice; IL-12 dose 50 ng/mouse, 24 hours before radiation, 5 mice
  Survives (30 days): 3
Lethally irradiated mice; IL-12 dose 50 ng/mouse, 24 hours before radiation, 30 days
  Survival rate (%): 60%
Lethally irradiated mice; IL-12 dose 100 ng/mouse, 24 hours before radiation, 5 mice
  Survives (30 days): 4
Lethally irradiated mice; IL-12 dose 100 ng/mouse, 24 hours before radiation, 30 days
  Survival rate (%): 80%
Lethally irradiated mice; IL-12 dose 200 ng/mouse, 24 hours before radiation, 5 mice
  Survives (30 days): 3
Lethally irradiated mice; IL-12 dose 200 ng/mouse, 24 hours before radiation, 30 days
  Survival rate (%): 60%
Lethally irradiated mice; [3]
  Survival rate (%): 80%
  radioprotective effect: only cytokine tested that can protect mice from lethal dose radiation
Lethally irradiated mice; cytokine given 1 hour post lethal dose radiation, 4-5 mice per group
  Survives: 4
Lethally irradiated mice; higher dose (up to 50 ug/kg) compared with 5 ug/kg
  survival at higher dose: did not yield greater survival
Lethally irradiated mice; injection 1 hr after lethal irradiation
  Survival rate (%): 80%
Lethally irradiated mice; injection 1 hr after lethal irradiation, 5 mice
  Survives: 4
Lethally irradiated mice; injection 12 hrs after lethal irradiation
  Survival rate (%): 0%
Lethally irradiated mice; injection 12 hrs after lethal irradiation, 5 mice
  Survives: 0
Lethally irradiated mice; injection 12 hrs before lethal irradiation
  Survival rate (%): 20%
Lethally irradiated mice; injection 12 hrs before lethal irradiation, 10 mice
  Survives: 2
Lethally irradiated mice; injection 24 hrs after lethal irradiation
  Survival rate (%): 20%
Lethally irradiated mice; injection 24 hrs after lethal irradiation, 10 mice
  Survives: 2
Lethally irradiated mice; injection 24 hrs before lethal irradiation
  Survival rate (%): 100%
Lethally irradiated mice; injection 24 hrs before lethal irradiation, 10 mice
  Survives: 10
Lethally irradiated mice; injection 36 hrs after lethal irradiation
  Survival rate (%): 0%
Lethally irradiated mice; injection 36 hrs after lethal irradiation, 5 mice
  Survives: 0
Lethally irradiated mice; injection 36 hrs before lethal irradiation
  Survival rate (%): 0%
Lethally irradiated mice; injection 36 hrs before lethal irradiation, 10 mice
  Survives: 0
Lethally irradiated mice; injection 48 hrs before lethal irradiation
  Survival rate (%): 0%
Lethally irradiated mice; injection 48 hrs before lethal irradiation, 10 mice
  Survives: 0
Lethally irradiated mice; lethal dose radiation
  best administration time for radioprotection: 24 hours before or 1 hour post radiation
Lethally irradiated mice; mice, lethal dose radiation
  optimal radioprotective dose (best survival rate): 5 µg/kg
[1]; cells isolated the first 7 days post lethal radiation
  CFU-S12 activity: did not give rise of CFU-S12
[1]; lethal radiation, IL-12 24 hours before radiation
  time of full recovered CFU-S12 activity: 10 days post radiation
[2]
  protection of long-term repopulating cells: protects long-term repopulating cells
